Laboratory results: US9284369B2, “Inhibition of angiogenesis” (Genentech, Inc., priority 2007, dated 2016)

How the values were obtained:
[1] = tested on: Bv8 protein levels; assay: In vivo G-CSF administration, Bv8 protein levels (ELISA); parameters: species or system mouse
Method: Eight weeks old Balb/c mice were subcutaneously injected with 10 μg recombinant human G-CSF (Neupogen, Amgen) daily for eight consecutive days. Control animals were given PBS. At the end of study, BM, whole blood and spleen samples were taken for analysis. One group of animals was maintained for two days after G-CSF discontinuation. Neutrophil count was done using an automated, high-resolution, flow cytometry-based hematology analyzer (CellDyn 3000). Serum and BM Bv8 levels were measured by ELISA.
MaxiSorp® 96-well microwell plates (Nalge Nunc International, Rochester, N.Y.) were coated with […] 3F1 antibody (a mouse anti-human BV8 antibody, which also binds to mouse Bv8 in 50 mM carbonate buffer, pH 9.6, at 4° C. overnight. Plates were washed with PBS containing 0.05% polysorbate 20 and blocked with 0.5% bovine serum albumin, 10 ppm Proclin 300™ (Supelco, Bellefonte, Pa.) in PBS at room temperature for 1 h. After plates were washed, mouse BV8 standards (0.039-2.50 ng/ml in 2-fold serial dilution, Genentech) and samples (minimum 1:10 dilution) in PBS containing 0.5% bovine serum albumin, 0.05% polysorbate 20, 10 ppm Proclin 300® (Supelco, Bellefonte, Pa.) and 0.35N NaCl (sample buffer) were added to the plates. The plates were incubated for 2 h at room temperature. Unbound antibody was removed by a wash step. Antibody bound to the plates was detected by adding biotinylated 4E10 antibody (a hamster anti-mouse BV8 antibody, Genentech) followed by streptavidin-HRP (GE Healthcare, Buckinghamshire, United Kingdom) and 3,3′,5,5′-tetramethyl benzidine (Kirkegaard & Perry Laboratories, Gaithersburg, Md.) as the substrate. The reaction was stopped by adding 1 M phosphoric acid. Absorbance was read at 450 nm on a Titertek™ stacker reader (ICN, Costa Mesa, Calif.). The titration curves of the standards were fit using a four-parameter regression curve-fitting program (Genentech). Data points which fell in the range of the standard curve were used for calculating the mouse BV8 concentrations in samples.

[2] = tested on: Bv8 expression; assay: Regulation of Bv8 gene expression in cultured human blood and bone marrow cells (Taqman); type: cell-based
Method: RNA was prepared using the RNeasy™ Mini Kit (Qiagen). 50 ng total RNA per reaction was used for the real time PCR (Taqman) analysis. For human Bv8, testis RNA (BD Biosciences) served as control. Reactions were run on 9600 Emulation mode of 7500 Real time PCR system (Applied Biosystems, Foster City, Calif.) and the absolute quantification with standard curve was used with Sequence Detection System (SDS) software. The expression level of each gene was further quantified relative to the housekeeping gene RPL19 in the same sample. The sequences of Taqman primers are as follows: Human Bv8 forward: ATG GCA CGG AAG CTA GGA (SEQ ID NO: 10), reverse: GCAGAGCTGAAGTCCTCTTGA (SEQ ID NO: 11), probe: TGCTGCTGGACCCTTCCTAAACCT (SEQ ID NO: 12); Human RPL19 forward: CGC AAG CGC CGT GAA (SEQ ID NO: 28), reverse: GGTCTCTTCCTCCTTGGATAAAGTC (SEQ ID NO: 29), probe: CCAGGCCAAGAAGGAGGAGATCATCA (SEQ ID NO: 30). Human specific VEGF forward: AAT GAC GAG GGC CTG GAG T (SEQ ID NO: 31), reverse: TTGATCCGCATAATCTGCATG (SEQ ID NO: 32), probe: TGTGCCCACTGAGGAGTCCAACATCA (SEQ ID NO: 33).
Recombinant human MCP-1, MIP-1α, MIP-1β, MIP-2, bFGF, VEGF, GM-CSF, G-CSF, SDF-1α, M-CSF, Erythropoietin (EPO) and TNFα were purchased from R&D Systems (Minneapolis, Minn.). Recombinant human IL-8, IFNγ, Bv8 (Prokineticin-2), IL-4, IL-10, IL-13, TGF-β were from PeproTech Inc. (Rocky Hill, N.J.). SCF (Stem Cell factor) was from Invitrogen Biosource (Carlsbad, Calif.). In some cases, G-CSF from Amgen (Neupogen/Filgrastim) was used. All cytokines were used at 10 ng/ml. Freshly purified cells were washed and re-suspended in HBSS media containing 0.2% BSA (low endotoxin, Serologicals Corp. Norcross, Ga.). Two million cells were incubated in 24-well plates with various cytokines and chemokines for 4 hr at 37° C. in a 5% CO2 incubator. Cells were then transferred into eppendorf tubes, centrifuged and lysed with RNA lysis buffer (Qiagen, Valencia, Calif.). Bv8 expression was assessed by Taqman with RPL19 (Ribosomal Protein L19) as the internal control gene.

B1: G-CSF: recombinant granulocyte-CSF: mouse or human (R&D Systems) or human Neupogen (Amgen) (protein, chains of the INN, looked up)
chain: MTPLGPASSLPQSFLLKCLEQVRKIQGDGAALQEKLCATYKLCHPEELVLLGHSLGIPWAPLSSCPSQALQLAGCLSQLHSGLFLYQGLLQALEGISPELGPTLDTLQLDVADFATTIWQQMEELGMAPALQPTQGAMPAFASAFQRRAGGVLVASHLQSFLEVSYRVLRHLAQP
increase of Bv8 levels in the BM above background ([1]; 24 hours after G-CSF administration): ~30 fold
serum Bv8 levels ([1]; after G-CSF administration): dramatically increased
Bv8 levels in kidney, brain and liver ([1]; data not shown): no effect
time for BM and serum Bv8 to return to near baseline after discontinuing G-CSF ([1]; mouse, in vivo): ≤ 48 h
Bv8 expression in monocytes and lymphocytes ([2]; 10 ng/ml, 4 hr): did not show any change
induction of Bv8 expression in human neutrophils and whole bone marrow cells ([2]; 10 ng/ml, 4 hr): 7 fold
range of induction of Bv8 expression ([2]; 10 ng/ml, 4 hr): 6-12 fold
duration of Bv8 mRNA induction ([2]; data not shown): up to 24 hr
